Measurements reported in PMC3589453, “Structural Characterization of the Self-Association of the Death Domain of p75^NTR” (PLoS ONE, 2013).

Assays:
[1] = molecular target: p75CTD symmetric dimer (dimer of the C416S mutant of p75CTD) (rat) (UniProt P07174); test: SPR; Biacore 3000, 25 °C; p75CTD monomer and dimer coupled onto a CM-5 chip at equal molarities; NRIF peptide flowed over; 50 mM Hepes-KOH pH 7.5, 100 mM KCl, 5% glycerol, 0.005% Tween-20
[2] = molecular target: p75DD-Fusion (chimera of the p75NTR death domain and a p75-interacting peptide from NRIF) (rat | not stated) (UniProt P07174); test: SEC; purified p75NTR constructs and their mutants on a Superdex 75 column; monomer and dimer peaks; some runs with beta-ME or DTNB
[3] = molecular target: T1, p75CTD monomer (p75CTD C379S/C416S) (rat, UniProt P07174 334-425, C379S | C416S, biotinylated for the BLI assay); test: BLI; Octet (ForteBio); biotinylated p75CTD proteins loaded on Streptavidin High Binding FA biosensors; RIP2 CARD in solution at 5 µM, then 20, 10, 5 and 2 µM for the monomer; 50 mM Hepes-NaOH pH 7.5, 100 mM NaCl, 5% glycerol, 1 mM EDTA; details: both partners purified
T1 construct: p75NTR, rat, residues 334-425; Mutant of m3; the tag is that of the parent construct; Biotinylated for BLI, coupled onto a CM-5 chip for SPR; also called double cysteine residue mutant
T1 sequence (looked up): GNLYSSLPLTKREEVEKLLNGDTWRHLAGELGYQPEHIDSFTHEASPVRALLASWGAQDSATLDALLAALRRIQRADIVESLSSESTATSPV

[4] = molecular target: T2, p75CTD monomer (p75CTD C379S/C416S) (rat, UniProt P07174 334-425, C379S | C416S, biotinylated for the BLI assay); test: BLI
T2 sequence: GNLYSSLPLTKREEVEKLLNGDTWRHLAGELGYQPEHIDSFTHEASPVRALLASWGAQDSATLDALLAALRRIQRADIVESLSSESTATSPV

[5] = molecular target: the molecule itself; test: SEC; purified p75NTR constructs and their mutants on a Superdex 75 column; monomer and dimer peaks; some runs with beta-ME or DTNB
[6] = molecular target: the molecule itself; test: crystal structure; p75DD modified with DTNB; sitting drop, 4 °C, 0.1 M Bis-Tris propane pH 7.0, 1.2 M sodium citrate; asymmetric dimer in the crystal lattice
[7] = molecular target: T1, p75CTD monomer (p75CTD C379S/C416S); test: SPR; Biacore 3000, 25 °C; p75CTD monomer and dimer coupled onto a CM-5 chip at equal molarities; NRIF peptide flowed over; 50 mM Hepes-KOH pH 7.5, 100 mM KCl, 5% glycerol, 0.005% Tween-20; details: both partners purified
[8] = molecular target: the molecule itself; test: immunoprecipitation and non-reducing SDS-PAGE immunoblot; HA-p75NTR in transfected HEK 293T cells without ligand; lysate in 40 mM Tris pH 7.6, 150 mM NaCl, 0.5% NP-40, 10% glycerol; anti-HA immunoprecipitates boiled with or without DTT, blotted with anti-HA

**Q.** With “NRIF peptide (residues 552-577), chemically synthesized” as the molecule, how does the Kd [1] read?
**A.** 10 µM

**Q.** Which stoichiometry N [2] does the source give for “p75DD-Fusion (chimera of the p75NTR death domain and a p75-interacting peptide from NRIF) (from UniProt P07174 334-418)” here?
**A.** 2

B1: Human RIP2 CARD domain (residues 438-524) (domain or fragment, UniProt O43353 438-524, looked up)
chain: QWIQSKREDIVNQMTEACLNQSLDALLSRDLIMKEDYELVSTKPTRTSKVRQLLDTTDIQGEEFAKVIVQKLKDNKQMGLQPYPEIL
notes: pET24a vector; also called CARD protein; source: E. coli, purified (similar to p75DD)
**Q.** For B1, which “fold stronger than the NRIF peptide on p75CTD (KD about 10^-5 M)” value [3] is on record?
**A.** ~100 fold

**Q.** And the Kd [4]?
**A.** 0.24 µM

B2: p75DD (rat p75NTR death domain, residues 334-418) (domain or fragment, UniProt P07174 334-418, looked up)
chain: GNLYSSLPLTKREEVEKLLNGDTWRHLAGELGYQPEHIDSFTHEACPVRALLASWGAQDSATLDALLAALRRIQRADIVESLCSE
notes: p75NTR (neurotrophin receptor p75), rat, death domain, residues 334-418; pET24a vector; Not treated with DTNB in the solution experiments (the DTNB-treated crystal form is m2); also called His6-tagged p75DD; source: E. coli BL21, purified (Ni-NTA, size-exclusion chromatography); also co-expressed in E. coli with GST-tagged NRIF loop region (521-661); not shown: His6, C-terminal, kept
**Q.** For B2, which “stoichiometry N” value [5] is on record?
**A.** 2

B3: p75DD modified with DTNB (as crystallised) (domain or fragment, rat, UniProt P07174 334-418, looked up)
chain: GNLYSSLPLTKREEVEKLLNGDTWRHLAGELGYQPEHIDSFTHEACPVRALLASWGAQDSATLDALLAALRRIQRADIVESLCSE
modifications: Cys379 and Cys416 modified by DTNB (MNB group)
notes: p75NTR, rat, death domain, residues 334-418 (334-417 traced in the structure); Same construct as m1 after treatment with DTNB at a 5:1 molar ratio; also called DTNB-modified p75DD; source: E. coli BL21, purified (Ni-NTA, size-exclusion chromatography), then modified with DTNB
**Q.** Does B3 bind [6]?
**A.** binds

B4: p75ICD (rat p75NTR intracellular region, residues 280-425) (domain or fragment, UniProt P07174 280-425, looked up)
chain: KQNKQGANSRPVNQTPPPEGEKLHSDSGISVDSQSLHDQQTHTQTASGQALKGDGNLYSSLPLTKREEVEKLLNGDTWRHLAGELGYQPEHIDSFTHEACPVRALLASWGAQDSATLDALLAALRRIQRADIVESLCSESTATSPV
notes: p75NTR, rat, intracellular region, residues 280-425; pET24a vector; source: E. coli BL21, purified (Ni-NTA, size-exclusion chromatography)
**Q.** Which “stoichiometry N” value [5] does the source give for B4 here?
**A.** 2

B5: p75CTD C416S (domain or fragment, rat, UniProt P07174 334-425, looked up)
chain: GNLYSSLPLTKREEVEKLLNGDTWRHLAGELGYQPEHIDSFTHEACPVRALLASWGAQDSATLDALLAALRRIQRADIVESLSSESTATSPV
notes: p75NTR, rat, residues 334-425; Mutant of m3, the single chain for its self-association; the isolated dimer is m12; also called C416S mutant of p75CTD
**Q.** Which “stoichiometry N” value [5] does the source give for B5 here?
**A.** 2

B6: p75CTD (rat p75NTR residues 334-425) (domain or fragment, UniProt P07174 334-425, looked up)
chain: GNLYSSLPLTKREEVEKLLNGDTWRHLAGELGYQPEHIDSFTHEACPVRALLASWGAQDSATLDALLAALRRIQRADIVESLCSESTATSPV
notes: p75NTR, rat, death domain and C-terminal tail, residues 334-425; pET24a vector; source: E. coli BL21, purified (Ni-NTA, size-exclusion chromatography)
**Q.** How did the “stoichiometry N” value [5] turn out when B6 was run?
**A.** 2

**Q.** MESGAGRASDNSLLTHALPVKSHQKG [NRIF peptide (residues 552-577), chemically synthesized] was tested. Which Kd [7] did it give?
**A.** ~10 µM

B7: full-length rat p75NTR with N-terminal HA tag (receptor, UniProt P07174 30-425, looked up)
chain: KETCSTGLYTHSGECCKACNLGEGVAQPCGANQTVCEPCLDNVTFSDVVSATEPCKPCTECLGLQSMSAPCVEADDAVCRCAYGYYQDEETGHCEACSVCEVGSGLVFSCQDKQNTVCEECPEGTYSDEANHVDPCLPCTVCEDTERQLRECTPWADAECEEIPGRWIPRSTPPEGSDSTAPSTQEPEVPPEQDLVPSTVADMVTTVMGSSQPVVTRGTTDNLIPVYCSILAAVVVGLVAYIAFKRWNSCKQNKQGANSRPVNQTPPPEGEKLHSDSGISVDSQSLHDQQTHTQTASGQALKGDGNLYSSLPLTKREEVEKLLNGDTWRHLAGELGYQPEHIDSFTHEACPVRALLASWGAQDSATLDALLAALRRIQRADIVESLCSESTATSPV
notes: p75NTR, rat, full length; pCDNA3 construct, a gift; also called wildtype; full-length p75NTR; source: HEK 293T, transiently transfected, in lysate; not shown: HA, N-terminal, kept
**Q.** How did the “stoichiometry N” value [8] turn out when B7 was run?
**A.** 2
